Consider 1 substance from PMC4514859.

pKd: −log10 of the molar value.

For the data set, the system named is MtlR (Pseudomonas fluorescens DSM 50106). The data set is described as follows: EMSA. The note with it: 1x shift buffer A: 10 mM Tris-HCl pH 7.0, 5% glycerol, 1 mM TCEP, 50 ug/ml salmon sperm DNA, 4% TEG, 2 mM D-mannitol (absent in buffer B), 30 min on ice, gel ….

The term pKd denotes the Kd on a negative log10 scale, so that one unit is a factor of ten. With PCR 210 (wild-type PmtlE operator), the pKd (with D-mannitol, kdiss 1.1e-4 s-1, t1/2 112 min) is 7.51 and the pKd (without mannitol, kdiss 1.2e-4 s-1, t1/2 99 min) is 7.49.
